Measured values taken from paper PMC8622166 (International Journal of Molecular Sciences, 2021).

Molecular target: RAC3 (human, UniProt P60763 1-192)
Assay: stopped-flow fluorimetry; association (kobs) at one concentration: 2 µM GDI mixed with 0.2 µM mdGDP-bound RHO GTPase; 25 °C, 30 mM Tris/HCl pH 7.5, 10 mM K2HPO4/KH2PO4 pH 7.5, 5 mM MgCl2, 3 mM DTT
Conditions: both partners purified

B1: GDI3ΔN20 (domain or fragment, human, UniProt Q99819 21-225, looked up)
chain: LCARVLLADKEGGPPAVDEVLDEAVPEYRAPGRKSLLEIRQLDPDDRSLAKYKRVLLGPLPPAVDPSLPNVQVTRLTLLSEQAPGPVVMDLTGDLAVLKDQVFVLKEGVDYRVKISFKVHREIVSGLKCLHHTYRRGLRVDKTVYMVGSYGPSAQEYEFVTPVEEAPRGALVRGPYLVVSLFTDDDRTHHLSWEWGLCICQDWKD
- binding result: binds
